Source: patent publication US20230193235A1

Molecular target: RBD (a.a. 333-529) of SARS-CoV-2 S fused to the Fc region of IgG1 (SARS-CoV-2; human) (UniProt P0DTC2)
Assay: BLI, RBD-IgG1 captured on anti-human Fc sensor, dimeric sACE22 as analyte (avid)

untagged sACE22.v2.4 manufactured in ExpiCHO-S cells (from UniProt Q9BYF1 19-732) (receptor)
kon: 200000 M⁻¹ s⁻¹
